In experiment [1] the target is T1, Sym-1706 (RSV G central conserved domain (CCD) peptide, type A 145-184) (Respiratory syncytial virus type A, N-terminal biotin).
T1 construct: Synthetic peptide, C-terminally truncated against Sym-1705
T1 peptide: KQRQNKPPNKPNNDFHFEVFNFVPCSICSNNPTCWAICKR
The experiment in a line: ELISA, antibody titrated on biotinylated peptide on avidin plate.

The target in experiment [2] is T2, Sym-1705 (RSV-G type A central region peptide 145-201) (Respiratory syncytial virus type A, not fully specified; N-terminal biotin).
T2 construct: Synthetic peptide
T2 peptide: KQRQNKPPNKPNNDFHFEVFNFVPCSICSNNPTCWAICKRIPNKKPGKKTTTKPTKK
Described as above.

For experiment [3], the target named is T3, Sym-1788 (RSV-G type B central region peptide 145-201) (Respiratory syncytial virus type B, N-terminal biotin).
T3 construct: Synthetic peptide
T3 peptide: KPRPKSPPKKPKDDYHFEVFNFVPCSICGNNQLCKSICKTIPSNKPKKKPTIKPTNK
Described as above.

For experiment [4], the target named is T4, Sym-1789 (RSV-G type B central region peptide 145-184) (Respiratory syncytial virus type B, N-terminal biotin).
T4 construct: Synthetic peptide, C-terminally truncated against Sym-1788
T4 peptide: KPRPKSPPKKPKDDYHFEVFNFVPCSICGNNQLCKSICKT
The experiment is described as above.

The target of experiment [5] is T1, Sym-1706 (RSV G central conserved …). The experiment in a line: Octet Red384, streptavidin tips with biotinylated peptide. A general note: Biolayer interferometry detects binding as a change in optical thickness at a sensor tip.
Experiment [6] addresses T2, Sym-1705 (RSV-G type A central region …). The experiment is described as above.
Experiment [7] has as its target T3, Sym-1788 (RSV-G type B central region …). The description is as above.
The target in experiment [8] is T4, Sym-1789 (RSV-G type B central region …). The experiment is described as above.
For experiment [9], the target named is T5, Recombinant RSV attachment protein (G protein) corresponding to RSV B/B1 (Respiratory syncytial virus B/B1, UniProt O36633 65-299).
T5 construct: also called RSV Gb; Gb
T5 sequence: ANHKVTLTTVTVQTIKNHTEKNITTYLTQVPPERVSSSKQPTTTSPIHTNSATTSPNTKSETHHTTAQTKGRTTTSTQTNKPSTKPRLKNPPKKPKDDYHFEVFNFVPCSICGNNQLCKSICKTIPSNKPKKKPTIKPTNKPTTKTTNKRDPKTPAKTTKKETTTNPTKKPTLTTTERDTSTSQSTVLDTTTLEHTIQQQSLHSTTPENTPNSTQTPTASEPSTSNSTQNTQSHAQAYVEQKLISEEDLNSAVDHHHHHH
The experiment in a line: ELISA, coated recombinant protein. Background: An ELISA detects its analyte on a solid surface through an enzyme-linked reagent.

For experiment [10], the target named is G protein of RSV B/18537 (ATCC Cat. No. VR-1580), on virus (Respiratory syncytial virus B/18537). The experiment in a line: cell-based or functional assay.
Experiment [11] addresses T6, G protein of RSV A/Long (ATCC Cat. No. VR-26), on virus (Respiratory syncytial virus A/Long, UniProt P20895 1-298).
T6 sequence (looked up): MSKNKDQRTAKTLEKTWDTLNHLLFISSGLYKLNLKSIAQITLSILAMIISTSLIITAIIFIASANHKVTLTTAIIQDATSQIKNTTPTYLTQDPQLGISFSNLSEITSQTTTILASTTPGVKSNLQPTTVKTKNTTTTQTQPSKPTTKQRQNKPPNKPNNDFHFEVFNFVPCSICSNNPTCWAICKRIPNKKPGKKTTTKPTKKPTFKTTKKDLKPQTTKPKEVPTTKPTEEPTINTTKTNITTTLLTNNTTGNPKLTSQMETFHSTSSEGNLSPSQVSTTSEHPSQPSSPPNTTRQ
The experiment in a line: cell-based or functional assay.

The target of experiment [12] is T1, Sym-1706 (RSV G central conserved …). The experiment in a line: ELISA, biotinylated peptide on avidin plate.
Experiment [13] concerns the target T2, Sym-1705 (RSV-G type A central region …). The experiment in a line: ELISA, biotinylated peptide on avidin plate.
Experiment [14] has as its target T3, Sym-1788 (RSV-G type B central region …). The experiment in a line: ELISA, biotinylated peptide on avidin plate.
The target of experiment [15] is T4, Sym-1789 (RSV-G type B central region …). The experiment in a line: ELISA, biotinylated peptide on avidin plate.

The term IC50 denotes the midpoint of a concentration-inhibition curve. A high value points to weaker potency.

B1: CB030.1 (antibody, V domains shown)
VH: QVQLVQSGAEMKRPGSSVKVSCKASGGTFSTFAINWVRQAPGQGFEWMGGVIPGFDSANYAQKFQGRLTMSADESTSTVYMELSSLRSDDTAVYYCAGNSGYCSGDSCAPNWGPGTLVTVSS
VL: DIVMTQSPLSLPVTPGEPASISCRSSQSLVHSNGYSYLDWYLQKPGQSPQLLIYLGSNRPSGVPDRFSGSGSGTDFTLKISRVEAEDVGVYFCMQNLQTPTFGGGTKVEIK
notes: Tested as human IgG from the pCP9-kappa vector
With B1, the IC50 in experiment [1], in [2], in experiment [3] and in experiment [4] was ~0.02 µg/mL each time. The “Binding (Octet) [RU]” value was found to be 0.53 RU in experiment [5], 0.47 RU in experiment [6], 0.73 RU in experiment [7] and 1.36 RU in experiment [8]. The binding result in experiment [9] is listed as “binds”. In addition, in [10], the “Neutralization IC50 (ng/mL), plaque reduction assay, RSV B/18537” value was determined as 18.3 ng/mL. In addition, the “Neutralization IC50, plaque reduction assay, RSV A/Long” value in experiment [11] is 0.037 µg/mL.

B2: CB065.1 (antibody, V domains shown)
VH: QVQLVESGGGVVQPGRSLRLSCAASGFTFSNYGMHWVRQAPGKGLEWVTIISYDESTTLYADSVKGRFTISRDNSKNTVYLQMNSLRPEDTAVYYCARDHFDPSGYFWYFDLWGRGTLVTVSS
VL: DIVMTQSPLSLSVTPGQPASISCKSSQSLLQRDGKTYLYWYLQKPGQSPQLLIYEVSSRFSGVPDRFSGSGSGTDFTLKISRVEAEDVGVYYCMQGIRLPRTFGQGTKVEIK
notes: as for B1
For the molecule B2, the binding result in experiment [12], in experiment [13], in [14], in [15] and in experiment [9] was “binds” in each case. Besides, the “Neutralization IC50 (ng/mL), plaque reduction assay, RSV B/18537” value in experiment [10] was 5.1 ng/mL.

B3: CB028.1 (antibody, V domains shown)
VH: QVQLVQSGAEVKKPGASVQVSCKTSGYTFSSYGISWVRQAPGQGPEWMGWISTHIGTTNYAQKLQGRVTMTTDTSTTTAYMELRSLRSDDTAVYYCARDLAKWYCSGDTCFCSGGRCYSDHWGQGTLVTVSS
VL: DIQMTQSPSSLSASVGDRVTITCRASQSINDCLNWYQQKPGQAPKLLISAASNLQSGVPSRFSGSGSETDFTLTISSLQPEDFAAYYCQQSFSTPLTFGGGTKVEIK
notes: as for B1
Consider B3, for which the binding result in experiment [12], in experiment [13], in experiment [14], in experiment [15] and in experiment [9] was “binds” each time. Besides, the “Neutralization IC50 (ng/mL), plaque reduction assay, RSV B/18537” value in experiment [10] was 16.3 ng/mL.

B4: CB017.5L (antibody, V domains shown)
VH: QVQLVESGGGVVQPGRSLRLSCSASGFTFSVYAMHWVRQAPGQGLEWVAIIWYDGSNKYYADSVKGRFTISRDNSKETLYLQMNSLRVEDTAVYYCARDPIVGHTRDGLDVWGQGTTVTVSS
VL: SYELTQPPSVSVSPGQTARVTCSGDAMAEQYTYWYQQKPGQAPVLIIFKDTERPSGIPERFSGSSSGTTVTLTISGVQTEDEADYYCQSTDSSGTSWVFGGGTKLTVL
notes: Tested as human IgG from the pCP9-lambda vector
Consider B4, for which the IC50 in experiment [1] and in [2] was ~0.02 µg/mL throughout. For the same molecule, the entries for the “Binding (Octet) [RU]” value in experiment [5] and in experiment [6] were -0.02 RU and 3.17 RU, respectively. Further, the “Neutralization IC50 (ng/mL), plaque reduction assay, RSV B/18537” value in [10] was 3.8 ng/mL. Besides, the “Neutralization IC50, plaque reduction assay, RSV A/Long” value in experiment [11] stood at 0.0035 µg/mL.

B5: CB079.1 (antibody, V domains shown)
VH: EVQLVESGGDLVQPGGSLRLSCSASGFVFTSYSFHWVRQAPGKGLEYVSSVSADGGSTYYADSVRGRFLISRDNSKNTLSLQMSSLRPDDTALYYCVPQPSLLWFGDLRSWGQGTLVTVSS
VL: DIVMTQSPLSLPVTPGEPASISCRSSQSLLHSNGYNYLDWYLQKPGQSPQLLIYLSSNRASGVPDRFSGSGSGTDFTLKISRVEAEDIGIYYCMQSLQTLTFGQGTRLEIK
notes: as for B1
Consider B5, for which the binding result in experiment [12], in [13], in [14], in experiment [15] and in experiment [9] was “binds” throughout. Besides, in [10], the “Neutralization IC50 (ng/mL), plaque reduction assay, RSV B/18537” value was determined as 4.4 ng/mL.

B6: CB076.2L (antibody, V domains shown)
VH: QVQLVQSGAEVKKPGSSVKVSCKTSGDTFSNYVVSWVRQAPGQGLEWMGGIIPMFGTTNYAQRFQGRVTISADESTSTAYMEMSSLKSEDTAVYYCARDRYYEVRAGGKVLNTYYYMDVWGKGTTVTVSS
VL: SSELTQDPAVSVALGHTVRITCQGDSLRSYYTNWYQQKPGQAPVLVIFGEDNRPSGIPDRFSGSSSGDTASLTITGTQAEDEADYYCNSRDSSGNLWVFGGGTKLTVL
notes: as for B4
For B6, the binding result in experiment [12], in experiment [13] and in experiment [15] was “binds” in each case. Further, in experiment [10], the “Neutralization IC50 (ng/mL), plaque reduction assay, RSV B/18537” value was determined as 5.6 ng/mL.

The values are drawn from patent US20160145322A1 (CRUCELL HOLLAND B V, published 2016).
